Laboratory results taken from patent publication US20180127480A1 (Stanford University, published 2018).
Residue numbers refer to the chain shown, from its start. Numbers in names are those of the source.

Molecular target: T1, SIRPα a1d1 expressed on yeast (human, UniProt P78324 31-149, limits assumed)
T1 construct: domain: domain 1; also called SIRPα a1d1-expressing yeast
Assay: flow cytometry titration on yeast expressing SIRPα a1d1
Text: FIG. 6B Graph showing binding of different CD47 species to SIRPα a1d1-expressing yeast in titration experiments. […] FIG. 6C Graph showing binding to SIRPα a2d1-expressing yeast in titration experiments (CD47 species are the same as in FIG. 6B).
High affinity CD47 variants were modified to produce diagnostic agents. […] In the original high affinity CD47 variants isolated, the cysteine at position 15 (C15) had been changed to a G (C15G variants). To enable coupling of high affinity CD47 variants to a fluorescent moiety, position 15 was reverted to a Cysteine (C15) or the Phenylalanine (F) at position 14 was changed to a Cysteine (F14C). Binding of such reagents to SIRPα was tested. […] As shown in these figures, the high affinity CD47 reagents can detect SIRPα expression on cells, both engineered and non-engineered, much better than the wildtype molecule. Indeed, as show in FIG. 6D, these reagents can perform as well as anti-SIRPα antibody in such assays.

T1 sequence (P78324 31-149 limits assumed): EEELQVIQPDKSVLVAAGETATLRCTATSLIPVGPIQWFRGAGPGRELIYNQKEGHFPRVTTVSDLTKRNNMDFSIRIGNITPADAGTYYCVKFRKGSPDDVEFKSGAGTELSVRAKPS

B1: biotinylated high affinity CD47 variant N3612 C15G (designed binder)
chain: WQPPLLFNKTKSVEFTFGNDTVVIPCFVTNMEAQNTTEVYVKWKFKGRDIYTFDGQANKSTVPTDFSSAKIEVSQLLKGDASLKMDKSDAVSHTGNYTCEVTELTREGETIIELKYRVVSGLNDIFEAQKIEWHE
modifications: biotin on the biotin acceptor peptide tag (BirA ligase)
notes: An 8x histidine tag is probably also present (Ni-NTA purification)
With B1 the “EC50 (read off the curve)” value was ~3 nM.

B2: N3612 F14C coupled to Alexa Fluor 647 (designed binder)
chain: WQPPLLFNKTKSVEFTCGNDTVVIPCFVTNMEAQNTTEVYVKWKFKGRDIYTFDGQANKSTVPTDFSSAKIEVSQLLKGDASLKMDKSDAVSHTGNYTCEVTELTREGETIIELKYRVVSHHHHHHHH
modifications: Alexa Fluor 647 maleimide on the cysteine at position 14 (F14C, mature CD47 numbering)
B2 was tested, and the “EC50 (read off the curve)” value was ~5 nM.

B3: N3612 C15 coupled to Alexa Fluor 647 (designed binder)
chain: B2 chain with C17F, G18C
modifications: Alexa Fluor 647 (maleimide chemistry) on the cysteine at position 15 (mature CD47 numbering)
notes: The production of this form is not described separately
With B3 the “EC50 (read off the curve)” value was ~5 nM.
